The supplement of paper PMC10126150
± gives the standard deviation of the averaged measurements.

test system: ATP; experiment: switch fluorescence ratio, 500 uM ATP over buffer (Cy3 cluster intensity, sum of 5 cycles each) (fold (ratio)); higher = stronger signal-on switching upon ATP binding; sequences stand for … in TCGTCGGCAGCGTCAGATGTGTATAAGAGACAGTTTTTTTTTTTTTTTTTTTTTTTTT…TC; conditions: aptamer strand: ATP DNA aptamer (quencher-CACCTGGGGGAGTATTGCGGAGGAAGG + anchor), 100 nM annealed; ATP concentration: 500 uM
Outline: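 The quencher-labelled ATP aptamer, at 100 nM, was annealed to Cy3-labelled switching-strand clusters on a modified Illumina MiSeq flow-cell. The clusters were imaged in selection buffer, then after 15 min with 500 uM ATP at 22 °C, and this buffer/ATP cycle ran five times with NaOH stripping and re-annealing between runs. Per-cluster fluorescence ratios, summed target-cycle over summed buffer-cycle Cy3 intensity, were averaged per switch-domain sequence. Clusters outside 100-1000 RFU were excluded.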
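Further: ATP exposure 15 min at 22 °C before imaging.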

In order of falling switch fluorescence ratio:
1. CTCCAGGGGA  1.5 ± 0.49
2. CCCCGGTTA  1.46 ± 0.12
3. CACGGACAGC  1.41 ± 0.025
4. GGCAATCACC  1.402 ± 0.0063
5. ATCACTTTAT  1.38 ± 0.51
6. CGTCCTCATG  1.302 ± 0.0067
7. TTTTTGCATC  1.2 ± 0.27
8. CCGGTTGCTG  1.12 ± 0.066
9. TTGACGGGGA  1.12 ± 0.17
10. TTTCGCTCTT  1.12 ± 0.25
11. CGATCCGTCC  1.09 ± 0.032
12. CGATAGGGGC  1.08 ± 0.14
13. AATAGGCACA  1.07 ± 0.0015
14. ACCGCGGGCG  1.069 ± 0.0053
15. GCGGGGAGGG  1.05 ± 0.033
16. TTATGTACTT  1.05 ± 0.021
17. ACGTTGACAG  1.05 ± 0.011
18. CAACAAGGGA  1.04 ± 0.018
19. TGGGGCCCTT  1.04 ± 0.02
20. TCATTGGGGA  1.032 ± 0.0071
21. ACGAGTGTTG  1.03 ± 0.037
22. TTATTCTCAC  1.031 ± 0.0064
23. CGGGGGATT  1.03 ± 0.02
24. ACACAGGCTA  1.027 ± 0.005
25. GGGTTCATTT  1.019 ± 0.0015
26. TAAACTATGG  1.02 ± 0.062
27. AGGGTGTCGA  1.02 ± 0.012
28. TTTGGGGTT  1.02 ± 0.018
29. TGTATGAGCA  1.02 ± 0.011
30. GTCACTAAAG  1.02 ± 0.043
31. AATAGCCTTG  1.02 ± 0.013
32. AGCGGGTAGG  1.02 ± 0.013
33. GGTTATAGTT  1.01 ± 0.011
34. AAGTTAATGG  1.015 ± 0.0071
35. TACAAGGGCA  1.01 ± 0.037
36. GAAGGGATTA  1.01 ± 0.04
37. TATTCTAGTA  1.01 ± 0.022
38. CTAGGCTAAT  1.014 ± 0.01
39. AGGGGGCCTT  1.0113 ± 0.00015
40. TTTCGAGGAT  1.006 ± 0.0044
41. GGCTAAAACT  1.01 ± 0.015
42. GAGTGTTTAG  1.01 ± 0.016
43. TTAAGAGTTA  1.006 ± 0.01
44. GCCGGGGACG  1.01 ± 0.011
45. GCGGCGGGGA  1.01 ± 0.039
46. TGGCTCCATT  1.01 ± 0.034
47. GGGTATCGAG  1.01 ± 0.019
48. TGAATTTAGC  1 ± 0.035
49. GTGGCAGGTA  1 ± 0.012
50. AAGTTTCACG  1 ± 0.058
51. GGTTAAGGTC  1 ± 0.029
52. TGATTCTAAT  1 ± 0.042
53. TATATATTAA  1.001 ± 0.0023
54. GGGTGTAATT  1 ± 0.016
55. TAAAAGCGGG  1 ± 0.013
56. TATTTGAGGG  1 ± 0.041
57. TTAAGGGGGG  1 ± 0.031
58. GACTATGTTT  1 ± 0.044
59. GGTTAGTACT  0.999 ± 0.017
60. CGTCGTAAAA  0.999 ± 0.036
61. ATTGTTTATT  0.998 ± 0.012
62. AATTTTGGTG  0.998 ± 0.047
63. GGGAAAAGGG  0.998 ± 0.035
64. TGGTTATGAA  0.998 ± 0.03
65. GCTTGGTGCA  0.997 ± 0.031
66. GGGGACGTCG  0.9972 ± 0.0087
67. TTTTTGCGCG  0.9974 ± 0.0065
68. AGGTTTCGAG  0.997 ± 0.023
69. GGATGCAGAT  0.997 ± 0.0094
70. CTGGTATGTG  0.997 ± 0.029
71. ATGGTTCGGG  0.996 ± 0.014
72. TTTCTTGTCA  0.996 ± 0.059
73. TTGTGTTACG  0.996 ± 0.047
74. GGCATACGTT  0.994 ± 0.026
75. GGGCCGGGGT  0.993 ± 0.04
76. ATAGGGGGAT  0.993 ± 0.015
77. GAATCAGTGG  0.993 ± 0.05
78. CGGTCAACG  0.993 ± 0.022
79. TTTGAACTTT  0.991 ± 0.033
80. AGATTTGGCA  0.988 ± 0.03
81. TGTGTTTTCT  0.9862 ± 0.003
82. GATTTAGGCA  0.986 ± 0.015
83. TGGAATTAGT  0.986 ± 0.038
84. CAGTTCGTTT  0.9845 ± 0.0063
85. TGTTGGGGAT  0.983 ± 0.029
86. GGGGCATTTG  0.9834 ± 0.0011
87. CTGTTGACTG  0.983 ± 0.041
88. CAGGGAGGGT  0.983 ± 0.014
89. TTTATTTGCT  0.9809 ± 0.0098
90. TTTAAGGGCG  0.981 ± 0.045
91. ATTGGTATCT  0.979 ± 0.014
92. CGGTATTGGT  0.976 ± 0.031
93. ATCGCTGGGA  0.972 ± 0.02
94. GGATATAAAT  0.972 ± 0.0099
95. ATCAGGTAAG  0.9682 ± 0.0024
96. GTATTGTCAG  0.9663 ± 0.00064
97. GATGTTGTTA  0.9647 ± 0.0086
98. GCTTAGTGGG  0.954 ± 0.013
99. GGGATTTTGC  0.952 ± 0.015
100. TAGAGTGATG  0.943 ± 0.013
